According to IntAct's records for PubMed 18854162:

B1: CCCH-type zinc finger protein oma-1 (Caenorhabditis elegans), G5EC86 (parent)
chain: MNVNGENNEKIDEHHLESSLAGVPTLPVSPLDHAKDLSQTNPNAQIGDLVTQTANLIAIKKQLLEDIAFNQHIQSMQVRAIQSFPQNNQVAPPFQQFDPRRRGLARMQKPESYKTVICQAWLESKTCSFADNCRFAHGEEELRPTFVEPLQNNKYKTKLCDKYTTTGLCPYGKRCLFIHPDHGPNAYIRADKLLEVSQRHALADIRDQMEQHIMTNGRIAAPPLSAIQHPLEMFARPSTPDEPAAKLPLGPTPVSTRGPRYELPTKELHDAEGAMTYPPSRWPLDPSMFALDAWNMAHRPASPLDSMVLGSAPNAGSFGMLGKQNTPGGVSGYSSAGSTPSQDLSSSSLNAASAAAAAAYFANSAVAQSLLMKSVATDPMMSCNGPFSPMPGFDQLAENMTKHLNLW
partner: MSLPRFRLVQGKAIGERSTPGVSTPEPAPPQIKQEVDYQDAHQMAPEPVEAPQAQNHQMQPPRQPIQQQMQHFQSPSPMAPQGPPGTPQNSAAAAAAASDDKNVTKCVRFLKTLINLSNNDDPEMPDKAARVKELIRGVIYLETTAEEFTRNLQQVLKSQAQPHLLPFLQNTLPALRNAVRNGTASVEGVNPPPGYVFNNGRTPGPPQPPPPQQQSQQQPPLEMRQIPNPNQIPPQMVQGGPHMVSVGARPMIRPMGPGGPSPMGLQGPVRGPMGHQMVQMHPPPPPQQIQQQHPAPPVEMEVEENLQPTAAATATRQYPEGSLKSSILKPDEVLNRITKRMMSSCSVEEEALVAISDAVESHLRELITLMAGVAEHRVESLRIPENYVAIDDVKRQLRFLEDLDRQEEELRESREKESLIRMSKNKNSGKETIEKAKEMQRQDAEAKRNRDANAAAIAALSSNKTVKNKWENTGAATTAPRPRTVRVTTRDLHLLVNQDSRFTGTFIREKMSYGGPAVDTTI

Variants of: B1
Settings: with taf4_caeel taf-4, O61707

| Variant | effect of a mutation on the interaction |
| --- | --- |
| T239A | decreasing interaction |
